Source: IntAct's records for PubMed 19074278

B1: Calcium and calcium/calmodulin-dependent serine/threonine-protein kinase (Lotus japonicus), A0AAR7 (parent)
chain: MGYDQTRKLSDEYEISEILGRGGFSVVRKGTKKSGNEKTQVAIKTLRRLGSSPSGTGGGQKSTATVMGFPSLRQVSVSDALLTNEILVMRRIVENVSPHPNVIDLYDVCEDSNGVHLVLELCSGGELFDRIVAQDKYAETEAAAVVRQIAAGLEAVHKADIVHRDLKPENCLFLDSRKDSPLKIMDFGLSSVEEFTDPVVGLFGSIDYVSPEALSQGKITAKSDMWSLGVILYILLSGYPPFIAQNNRQKQQMIINGNFSFYEKTWKGITQSAKQLISSLLTVDPSKRPSAQELLSHPWVRGDKAKDEQMDPEIVSRLQSFNARRKLRAAAIASVWSSTIFLRTKKLRSLVGTYDLKEEEIESLRIHFKKICGNGDNATLSEFVEVLKAMKMPSLIPLAPRIFDLFDNNRDGTIDMREILCGFSSLKNSKGDDALRLCFQMYDTDRSGCITKEEVASMLCALPEECLPADITEPGKLDEIFDLMDANSDGKVTFEEFKAAMQRDSSLQDMLLSSLRPS
partner: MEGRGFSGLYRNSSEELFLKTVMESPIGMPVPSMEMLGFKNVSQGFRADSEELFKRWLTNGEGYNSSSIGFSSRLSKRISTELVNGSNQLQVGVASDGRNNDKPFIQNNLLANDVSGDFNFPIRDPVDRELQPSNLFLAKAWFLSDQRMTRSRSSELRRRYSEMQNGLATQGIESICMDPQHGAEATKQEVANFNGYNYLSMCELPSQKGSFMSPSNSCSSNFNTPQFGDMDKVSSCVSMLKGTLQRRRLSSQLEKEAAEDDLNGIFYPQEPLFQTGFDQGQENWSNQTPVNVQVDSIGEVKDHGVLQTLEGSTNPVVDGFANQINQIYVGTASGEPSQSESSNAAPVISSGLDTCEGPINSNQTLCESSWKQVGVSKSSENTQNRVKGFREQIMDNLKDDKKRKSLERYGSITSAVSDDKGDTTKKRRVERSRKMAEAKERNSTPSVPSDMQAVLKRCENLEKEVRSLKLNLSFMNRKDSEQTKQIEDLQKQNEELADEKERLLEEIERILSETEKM

Variants of: B1
Settings: with cclop_lotja CYCLOPS

Variant	effect of a mutation on the interaction
K44A;T265I	disrupting interaction
G30E	disrupting interaction
K44A	disrupting interaction
